Laboratory results from IntAct's records for PubMed 31515488.

B1: RNA-binding protein 15 (Homo sapiens), Q96T37-3 (parent)
chain: MRTAGRDPVPRRSPRWRRAVPLCETSAGRRVTQLRGDDLRRPATMKGKERSPVKAKRSRGGEDSTSRGERSKKLGGSGGSNGSSSGKTDSGGGSRRSLHLDKSSSRGGSREYDTGGGSSSSRLHSYSSPSTKNSSGGGESRSSSRGGGGESRSSGAASSAPGGGDGAEYKTLKISELGSQLSDEAVEDGLFHEFKRFGDVSVKISHLSGSGSGDERVAFVNFRRPEDARAAKHARGRLVLYDRPLKIEAVYVSRRRSRSPLDKDTYPPSASVVGASVGGHRHPPGGGGGQRSLSPGGAALGYRDYRLQQLALGRLPPPPPPPLPRDLERERDYPFYERVRPAYSLEPRVGAGAGAAPFREVDEISPEDDQRANRTLFLGNLDITVTESDLRRAFDRFGVITEVDIKRPSRGQTSTYGFLKFENLDMSHRAKLAMSGKIIIRNPIKIGYGKATPTTRLWVGGLGPWVPLAALAREFDRFGTIRTIDYRKGDSWAYIQYESLDAAHAAWTHMRGFPLGGPDRRLRVDFADTEHRYQQQYLQPLPLTHYELVTDAFGHRAPDPLRGARDRTPPLLYRDRDRDLYPDSDWVPPPPPVRERSTRTAATSVPAYEPLDSLDRRRDGWSLDRDRGDRDLPSSRDQPRKRRLPEESGGRHLDRSPESDRPRKRHCAPSPDRSPELSSSRDRYNSDNDRSSRLLLERPSPIRDRRGSLEKSQGDKRDRKNSASAERDRKHRTTAPTEGKSPLKKEDRSDGSAPSTSTASSKLKSPSQKQDGGTAPVASASPKLCLAWQGMLLLKNSNFPSNMHLLQGDLQVASSLLVEGSTGGKVAQLKITQRLRLDQPKLDEVTRRIKVAGPNGYAILLAVPGSSDSRSSSSSAASDTATSTQRPLRNLVSYLKQKQAAGVISLPVGGNKDKENTGVLHAFPPCEFSQQFLDSPAKALAKSEEDYLVMIIVRAKLVEQRMKIWNSKL
B2: Septin-12 (Homo sapiens), Q8IYM1 (parent)
chain: MDPLRRSPSPCLSSQPSSPSTPPCEMLGPVGIEAVLDQLKIKAMKMGFEFNIMVVGQSGLGKSTMVNTLFKSKVWKSNPPGLGVPTPQTLQLHSLTHVIEEKGVKLKLTVTDTPGFGDQINNDNCWDPILGYINEQYEQYLQEEILITRQRHIPDTRVHCCVYFVPPTGHCLRPLDIEFLQRLCRTVNVVPVIARADSLTMEEREAFRRRIQQNLRTHCIDVYPQMCFDEDINDKILNSKLRDRIPFAVVGADQEHLVNGRCVLGRKTKWGIIEVENMAHCEFPLLRDLLIRSHLQDLKDITHNIHYENYRVIRLNESHLLPRGPGWVNLAPASPGQLTTPRTFKVCRGAHDDSDDEF
partner: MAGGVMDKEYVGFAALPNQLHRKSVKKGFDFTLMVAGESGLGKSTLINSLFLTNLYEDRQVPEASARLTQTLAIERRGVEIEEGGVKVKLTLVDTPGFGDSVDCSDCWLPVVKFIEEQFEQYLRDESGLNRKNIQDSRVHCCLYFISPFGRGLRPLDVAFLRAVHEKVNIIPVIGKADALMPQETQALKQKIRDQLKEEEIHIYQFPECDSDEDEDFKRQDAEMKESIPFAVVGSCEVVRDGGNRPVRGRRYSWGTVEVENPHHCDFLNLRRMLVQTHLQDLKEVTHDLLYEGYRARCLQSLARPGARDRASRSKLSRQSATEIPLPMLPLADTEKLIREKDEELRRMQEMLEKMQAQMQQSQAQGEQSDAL

Variants of: B1
Details: with nav2_human NAV2, Q8IVL1
nav2_human NAV2, Q8IVL1, sequence (Q8IVL1 whole entry): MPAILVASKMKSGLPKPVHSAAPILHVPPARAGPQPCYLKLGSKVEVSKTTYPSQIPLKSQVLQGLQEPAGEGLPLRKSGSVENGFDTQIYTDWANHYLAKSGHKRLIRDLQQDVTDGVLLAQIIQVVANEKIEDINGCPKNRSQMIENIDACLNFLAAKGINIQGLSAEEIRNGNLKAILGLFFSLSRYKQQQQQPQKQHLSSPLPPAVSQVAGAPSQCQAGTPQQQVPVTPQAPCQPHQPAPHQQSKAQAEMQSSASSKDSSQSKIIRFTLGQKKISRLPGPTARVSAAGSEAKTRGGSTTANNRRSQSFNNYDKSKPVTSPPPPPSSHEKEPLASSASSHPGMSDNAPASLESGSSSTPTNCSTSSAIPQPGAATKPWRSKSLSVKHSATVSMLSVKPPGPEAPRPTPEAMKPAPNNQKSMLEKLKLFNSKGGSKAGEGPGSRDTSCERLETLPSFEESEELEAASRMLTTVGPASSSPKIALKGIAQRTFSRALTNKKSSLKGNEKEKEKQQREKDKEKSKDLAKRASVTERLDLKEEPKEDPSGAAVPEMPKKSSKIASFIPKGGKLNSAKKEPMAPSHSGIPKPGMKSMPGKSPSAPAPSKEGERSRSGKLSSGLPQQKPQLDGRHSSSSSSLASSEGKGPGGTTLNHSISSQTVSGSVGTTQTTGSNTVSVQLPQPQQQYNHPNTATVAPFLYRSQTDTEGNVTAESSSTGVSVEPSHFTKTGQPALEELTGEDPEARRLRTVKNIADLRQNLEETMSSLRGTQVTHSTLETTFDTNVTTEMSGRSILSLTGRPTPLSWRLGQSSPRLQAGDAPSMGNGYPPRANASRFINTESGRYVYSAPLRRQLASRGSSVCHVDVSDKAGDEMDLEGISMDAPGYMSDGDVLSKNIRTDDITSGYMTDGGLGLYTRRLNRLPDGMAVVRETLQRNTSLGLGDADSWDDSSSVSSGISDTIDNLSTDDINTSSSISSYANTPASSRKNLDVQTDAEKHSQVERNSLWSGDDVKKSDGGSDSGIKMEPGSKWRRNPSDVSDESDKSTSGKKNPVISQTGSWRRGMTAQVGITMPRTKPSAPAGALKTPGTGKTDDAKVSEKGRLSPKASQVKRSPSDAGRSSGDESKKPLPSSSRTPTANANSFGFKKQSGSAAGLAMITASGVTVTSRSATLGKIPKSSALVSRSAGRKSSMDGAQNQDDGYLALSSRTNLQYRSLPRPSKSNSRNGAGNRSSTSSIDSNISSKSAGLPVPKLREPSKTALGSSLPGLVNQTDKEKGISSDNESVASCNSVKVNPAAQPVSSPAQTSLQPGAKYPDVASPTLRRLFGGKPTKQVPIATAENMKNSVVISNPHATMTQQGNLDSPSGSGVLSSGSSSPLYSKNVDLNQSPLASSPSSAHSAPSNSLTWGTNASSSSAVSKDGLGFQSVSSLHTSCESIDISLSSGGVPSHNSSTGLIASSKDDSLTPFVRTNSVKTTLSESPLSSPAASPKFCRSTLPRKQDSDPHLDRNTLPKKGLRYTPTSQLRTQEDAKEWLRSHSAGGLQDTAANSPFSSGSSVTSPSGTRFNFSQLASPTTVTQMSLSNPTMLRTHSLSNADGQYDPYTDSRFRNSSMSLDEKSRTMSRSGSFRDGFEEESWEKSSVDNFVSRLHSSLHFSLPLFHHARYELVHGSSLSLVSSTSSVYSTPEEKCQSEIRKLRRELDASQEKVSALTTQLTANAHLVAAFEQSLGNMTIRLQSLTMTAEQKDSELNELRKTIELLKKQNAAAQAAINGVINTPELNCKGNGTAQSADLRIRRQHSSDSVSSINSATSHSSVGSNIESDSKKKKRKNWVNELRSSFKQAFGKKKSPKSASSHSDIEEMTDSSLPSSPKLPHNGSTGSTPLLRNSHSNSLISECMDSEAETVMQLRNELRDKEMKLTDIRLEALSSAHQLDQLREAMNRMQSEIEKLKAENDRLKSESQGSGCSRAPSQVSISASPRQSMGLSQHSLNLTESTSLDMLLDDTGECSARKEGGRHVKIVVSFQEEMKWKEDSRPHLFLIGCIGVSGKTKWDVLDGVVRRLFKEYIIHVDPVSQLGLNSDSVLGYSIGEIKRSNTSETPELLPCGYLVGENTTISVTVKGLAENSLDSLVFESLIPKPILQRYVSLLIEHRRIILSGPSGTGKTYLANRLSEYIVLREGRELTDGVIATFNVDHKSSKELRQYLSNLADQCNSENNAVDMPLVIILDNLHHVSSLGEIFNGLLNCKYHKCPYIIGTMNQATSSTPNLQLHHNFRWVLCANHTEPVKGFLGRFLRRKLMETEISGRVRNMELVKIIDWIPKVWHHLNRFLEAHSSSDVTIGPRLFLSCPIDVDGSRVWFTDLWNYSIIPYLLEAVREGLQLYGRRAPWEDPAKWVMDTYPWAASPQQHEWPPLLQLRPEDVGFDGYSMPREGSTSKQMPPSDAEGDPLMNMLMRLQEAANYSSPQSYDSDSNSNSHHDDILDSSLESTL
For R961Q, the “effect of a mutation on the interaction” value was “disrupting interaction strength”.

Variants of: B2
Details: with sept1_human SEPTIN1, Q8WYJ6
In the case of MDPLRRSPSPCLSSQPSSPSTPPCEMLGPVGIEAVLDQLKIKAMKMGFEFNIMVVGQSGLGKSTMVNTLFKSKVWKSNPPGLGVPTPQTLQLHSLTHVIEEKGVKLKLTVTDTPGFGDQINNDNCWDPILGYINEQYEQYLQEEILITRQRHIPDTRVHCCVYFVPPTGHCLRPLDIEFLQRLSRTVNVVPVIARADSLTMEEREAFRRRIQQNLRTHCIDVYPQMCFDEDINDKILNSKLRDRIPFAVVGADQEHLVNGRCVLGRKTKWGIIEVENMAHCEFPLLRDLLIRSHLQDLKDITHNIHYENYRVIRLNESHLLPRGPGWVNLAPASPGQLTTPRTFKVCRGAHDDSDDEF [C184S], the “effect of a mutation on the interaction” value is reported as “with no effect”.
MDPLRRSPSPCLSSQPSSPSTPPCEMLGPVGIEAVLDQLKIKAMKMGFEFNIMVVGQSGLGKSTMVNTLFKSNVWKSNPPGLGVPTPQTLQLHSLTHVIEEKGVKLKLTVTDTPGFGDQINNDNCWDPILGYINEQYEQYLQEEILITRQRHIPDTRVHCCVYFVPPTGHCLRPLDIEFLQRLCRTVNVVPVIARADSLTMEEREAFRRRIQQNLRTHCIDVYPQMCFDEDINDKILNSKLRDRIPFAVVGADQEHLVNGRCVLGRKTKWGIIEVENMAHCEFPLLRDLLIRSHLQDLKDITHNIHYENYRVIRLNESHLLPRGPGWVNLAPASPGQLTTPRTFKVCRGAHDDSDDEF [K73N] was tested, and the “effect of a mutation on the interaction” value was “disrupting interaction strength”.
For MDPLRRSPSPCLSSQPSSPSTPPCEMLGPVGIEAVLDQLKIKAMKMGFEFNIMVVGQSGLGKSTMVNTLFKSKVWKSNPPGLGVPTPQTLQLHSLTHVIEEKGVKLKLTVTDTPGFGDQINNDNCWDPILGYINEQYEQYLQEEILITRQRHIPDTRVHCCMYFVPPTGHCLRPLDIEFLQRLCRTVNVVPVIARADSLTMEEREAFRRRIQQNLRTHCIDVYPQMCFDEDINDKILNSKLRDRIPFAVVGADQEHLVNGRCVLGRKTKWGIIEVENMAHCEFPLLRDLLIRSHLQDLKDITHNIHYENYRVIRLNESHLLPRGPGWVNLAPASPGQLTTPRTFKVCRGAHDDSDDEF [V162M], the “effect of a mutation on the interaction” value was “disrupting interaction strength”.
With MDPLRRSPSPCLSSQPSSPSTPPCEMLGPVGIEAVLDQLKIKAMKMGFEFNIMVVGQSGLGKSTMVNTLFKSKVWKSNPPGLGVPTPQTLQLHSLTHVIEEKGVKLKLTVTDTPGFGDQINNDNCWDPILGYINEQYEQYLQEEILITRQRHIPDTRVHCCVYFVPPTGHCLRPLDIEFLQRLCRTVNVVPVIARADSLTMEEREAFRRRIQRNLRTHCIDVYPQMCFDEDINDKILNSKLRDRIPFAVVGADQEHLVNGRCVLGRKTKWGIIEVENMAHCEFPLLRDLLIRSHLQDLKDITHNIHYENYRVIRLNESHLLPRGPGWVNLAPASPGQLTTPRTFKVCRGAHDDSDDEF [Q213R] the “effect of a mutation on the interaction” value was “disrupting interaction strength”.
With MDPLRRSPSPCLSSQPSSPSTPPCEMLGPVGIEAVLDQLKIKAMKMGFEFNIMVVGQSGLGKSTMVNTLFKSKVWKSNPPGLGVPTPQTLQLHSLTHVIEEKGVKLKLTVTDTPGFGDQINNDNCWDPILGYINEQYEQYLQEEILITRQRHIPDTRVHCCVYFVPPTGHCLRPLDIEFLQRLCRTVNVVPVIARADSLTMEEQEAFRRRIQQNLRTHCIDVYPQMCFDEDINDKILNSKLRDRIPFAVVGADQEHLVNGRCVLGRKTKWGIIEVENMAHCEFPLLRDLLIRSHLQDLKDITHNIHYENYRVIRLNESHLLPRGPGWVNLAPASPGQLTTPRTFKVCRGAHDDSDDEF [R204Q] the “effect of a mutation on the interaction” value was “disrupting interaction strength”.

Variants of: B2
Details: with sept1_human SEPTIN1, Q8WYJ6
Remark: another data set of the same source
In the case of MDPLRRSPSPCLSSQPSSPSTPPCEMLGPVGIEAVLDQLKIKAMKMGFEFNIMVVGQSGLGKSTMVNTLFKSKVWKSNPPGLGVPTPQTLQLHSLTHVIEEKGVKLKLTVTDTPGFGDQINNDNCWDPILGYINEQYEQYLQEEILITRQRHIPDTRVHCCVYFVPPTGHCLRPLDIEFLQRLCRTVNVVPVIARANSLTMEEREAFRRRIQQNLRTHCIDVYPQMCFDEDINDKILNSKLRDRIPFAVVGADQEHLVNGRCVLGRKTKWGIIEVENMAHCEFPLLRDLLIRSHLQDLKDITHNIHYENYRVIRLNESHLLPRGPGWVNLAPASPGQLTTPRTFKVCRGAHDDSDDEF [D197N], the “effect of a mutation on the interaction” value is reported as “disrupting interaction strength”.
For MDPLRRSPSPCLSSQPSSPSTPPCEMLGPVGIEAVLDQLKIKAMKMGFEFNIMVVGQSGLGKSTMVNTLFKSKVWKSNPPGLGVPTPQTLQLHSLTHVIEEKGVKLKLTVTDTPGFGDQINNDNCWDPILGYINEQYEQYLQEEILITRQRHIPDTRVHCCVYFVPPTEHCLRPLDIEFLQRLCRTVNVVPVIARADSLTMEEREAFRRRIQQNLRTHCIDVYPQMCFDEDINDKILNSKLRDRIPFAVVGADQEHLVNGRCVLGRKTKWGIIEVENMAHCEFPLLRDLLIRSHLQDLKDITHNIHYENYRVIRLNESHLLPRGPGWVNLAPASPGQLTTPRTFKVCRGAHDDSDDEF [G169E], the “effect of a mutation on the interaction” value was “disrupting interaction strength”.
